In US20020165128A1, “Compositions and methods for proteolytically inactivating infectious agents using lactoferrin and related molecules” (priority 1998, published 2002):
Like-named read-outs stand apart in the source and are kept apart here.

T1: H. influenzae Hap adhesin (Haemophilus influenzae, UniProt P45387, S243A)
T1 construct: expressed in transfected cells; host or cells: H. influenzae strain DB117 carrying pJS106
T1 sequence (P45387 26-1394 S243A): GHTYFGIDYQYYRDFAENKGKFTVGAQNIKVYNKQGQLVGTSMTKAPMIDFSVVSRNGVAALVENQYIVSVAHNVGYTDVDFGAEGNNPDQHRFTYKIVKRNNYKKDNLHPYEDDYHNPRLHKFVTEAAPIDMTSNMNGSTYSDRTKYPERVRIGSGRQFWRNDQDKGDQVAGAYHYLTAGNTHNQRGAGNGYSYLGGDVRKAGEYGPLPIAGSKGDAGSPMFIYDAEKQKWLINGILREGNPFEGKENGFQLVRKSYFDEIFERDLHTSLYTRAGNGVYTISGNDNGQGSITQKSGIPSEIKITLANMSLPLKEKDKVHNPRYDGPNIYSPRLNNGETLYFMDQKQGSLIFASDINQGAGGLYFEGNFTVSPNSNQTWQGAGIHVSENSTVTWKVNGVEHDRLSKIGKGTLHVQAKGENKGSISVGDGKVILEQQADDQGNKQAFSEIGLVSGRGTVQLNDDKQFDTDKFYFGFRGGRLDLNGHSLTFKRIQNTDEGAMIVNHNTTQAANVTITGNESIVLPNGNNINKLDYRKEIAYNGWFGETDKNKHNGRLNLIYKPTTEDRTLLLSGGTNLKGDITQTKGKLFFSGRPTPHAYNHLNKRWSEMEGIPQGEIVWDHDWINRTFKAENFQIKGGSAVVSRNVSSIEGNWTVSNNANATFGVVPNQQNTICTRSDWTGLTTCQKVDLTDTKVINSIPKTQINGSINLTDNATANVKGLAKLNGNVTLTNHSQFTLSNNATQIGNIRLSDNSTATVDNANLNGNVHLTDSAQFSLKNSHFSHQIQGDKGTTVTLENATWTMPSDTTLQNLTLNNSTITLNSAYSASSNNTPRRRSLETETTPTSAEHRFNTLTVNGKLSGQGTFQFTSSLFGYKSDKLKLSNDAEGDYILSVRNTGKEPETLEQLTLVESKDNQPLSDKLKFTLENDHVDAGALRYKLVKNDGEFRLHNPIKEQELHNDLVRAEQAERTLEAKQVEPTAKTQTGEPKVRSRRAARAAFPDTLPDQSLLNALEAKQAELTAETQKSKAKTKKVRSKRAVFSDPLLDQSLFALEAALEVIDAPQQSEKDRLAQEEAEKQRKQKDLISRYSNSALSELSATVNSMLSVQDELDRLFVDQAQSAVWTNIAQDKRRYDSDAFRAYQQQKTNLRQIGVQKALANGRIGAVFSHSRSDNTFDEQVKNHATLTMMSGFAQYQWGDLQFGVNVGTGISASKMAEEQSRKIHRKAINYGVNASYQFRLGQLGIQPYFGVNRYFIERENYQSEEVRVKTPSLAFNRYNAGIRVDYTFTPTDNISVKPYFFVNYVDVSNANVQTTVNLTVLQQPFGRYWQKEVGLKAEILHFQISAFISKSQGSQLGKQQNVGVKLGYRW


Columns and labels:
[1] = biological target: H. influenzae IgA1 protease precursor (Haemophilus influenzae, UniProt P44969, S288V)
Chain of H. influenzae IgA1 protease precursor (P44969 26-1694 S288V): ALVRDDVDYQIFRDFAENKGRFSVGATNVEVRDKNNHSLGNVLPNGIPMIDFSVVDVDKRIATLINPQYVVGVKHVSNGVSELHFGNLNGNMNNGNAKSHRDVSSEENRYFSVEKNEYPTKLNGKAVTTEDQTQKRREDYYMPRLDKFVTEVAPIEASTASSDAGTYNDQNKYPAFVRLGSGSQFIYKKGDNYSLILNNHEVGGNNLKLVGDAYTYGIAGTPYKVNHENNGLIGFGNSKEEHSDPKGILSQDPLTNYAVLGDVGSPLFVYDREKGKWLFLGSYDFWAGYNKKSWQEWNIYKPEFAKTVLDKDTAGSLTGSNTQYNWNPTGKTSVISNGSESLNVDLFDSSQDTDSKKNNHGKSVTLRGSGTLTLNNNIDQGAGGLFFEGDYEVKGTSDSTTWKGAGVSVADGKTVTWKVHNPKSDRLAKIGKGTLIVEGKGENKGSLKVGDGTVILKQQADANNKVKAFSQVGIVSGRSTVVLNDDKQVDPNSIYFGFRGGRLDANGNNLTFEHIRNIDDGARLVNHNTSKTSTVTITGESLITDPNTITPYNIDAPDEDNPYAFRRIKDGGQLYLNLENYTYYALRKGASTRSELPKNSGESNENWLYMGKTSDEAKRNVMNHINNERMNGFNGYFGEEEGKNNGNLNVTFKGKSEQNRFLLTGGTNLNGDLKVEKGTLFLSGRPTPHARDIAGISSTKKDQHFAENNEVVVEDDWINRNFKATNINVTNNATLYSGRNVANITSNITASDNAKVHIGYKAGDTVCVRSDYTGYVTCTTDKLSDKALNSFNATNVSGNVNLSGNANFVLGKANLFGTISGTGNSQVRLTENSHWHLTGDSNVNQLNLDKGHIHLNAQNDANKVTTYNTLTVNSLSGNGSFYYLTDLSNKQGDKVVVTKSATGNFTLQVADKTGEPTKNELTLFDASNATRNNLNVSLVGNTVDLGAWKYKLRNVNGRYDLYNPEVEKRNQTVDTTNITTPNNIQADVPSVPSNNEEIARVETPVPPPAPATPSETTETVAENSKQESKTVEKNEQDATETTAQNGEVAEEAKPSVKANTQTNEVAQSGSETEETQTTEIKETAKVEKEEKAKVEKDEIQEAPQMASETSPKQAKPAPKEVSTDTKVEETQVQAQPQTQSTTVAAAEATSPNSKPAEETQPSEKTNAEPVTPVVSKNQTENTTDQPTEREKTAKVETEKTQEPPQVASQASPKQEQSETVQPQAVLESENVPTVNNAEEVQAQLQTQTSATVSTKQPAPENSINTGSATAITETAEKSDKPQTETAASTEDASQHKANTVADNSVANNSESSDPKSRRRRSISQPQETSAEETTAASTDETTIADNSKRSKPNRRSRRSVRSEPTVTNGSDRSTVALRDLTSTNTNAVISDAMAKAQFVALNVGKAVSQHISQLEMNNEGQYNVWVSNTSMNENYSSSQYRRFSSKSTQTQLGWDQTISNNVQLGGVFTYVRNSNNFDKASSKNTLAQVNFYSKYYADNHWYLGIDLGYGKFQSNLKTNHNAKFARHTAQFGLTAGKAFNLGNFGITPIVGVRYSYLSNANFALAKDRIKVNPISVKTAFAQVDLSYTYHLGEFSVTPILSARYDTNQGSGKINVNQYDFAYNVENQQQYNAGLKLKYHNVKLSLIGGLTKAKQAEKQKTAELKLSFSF
Description: The Rd strain was grown in brain heart-infusion broth supplemented with hemin (10 μg/ml) and nicotinamide adenine dinucleotide (2 μg/ml) to mid-log phase, and then harvested by centrifugation.
All samples were collected in sterile beakers; within 6 hours of collection they were centrifuged at 10,000×g for 20 min at 4 C to remove lipids and cells. The resulting whey was stored at −70 C and was prepared for use by thawing slowly, without further modifications. 2×10^9 H. influenzae cells were resuspended in 1 ml of the unmodified human milk whey and incubated at 37 C with gentle mixing. Samples were removed at intervals between 2 minutes and 1 hour. Whole cells and supernatants were examined by Western immunoblot using antisera directed against all domains of the preprotein.
Mid-log phase Rd3-13 bacteria were incubated in milk whey, and aliquots were removed at the times shown.
The antiserum used was anti-Rd3-13, which reacts with IgAp, IgAa, and IgAb.

[2] = cited from earlier work
[3] = biological target: T1, H. influenzae Hap adhesin; type: cell-based; conditions: DB117/HapS243A, 430 nM
[4] = test system: H. influenzae Hap adhesin; type: cell-based, Haemophilus influenzae; conditions: DB117 derivatives, 13 μM

Molecule | removal of IgA protease precursor ([1]; Rd3-13, after 15 minutes) | removal of IgA protease precursor ([1]; Rd3-13, after two hours) | shelf life ([2]; original sealed packaging, stored below 20° C., max 75% relative humidity) | Iron binding: spectrophotometric method at 465 nm (on solids) ([2]; typical analysis) | pH (2%, 20° C.) ([2]; typical analysis) | proteolysis of Hap [3] | Hap degradation products [4]
DMV Lactoferrin: commercially available bovine milk lactoferrin powder, DMV International Nutritionals, Lot 10022340 (protein, UniProt P24627 20-708, looked up) Lactotransferrin: APRKNVRWCTISQPEWFKCRRWQWRMKKLGAPSITCVRRAFALECIRAIAEKKADAVTLDGGMVFEAGRDPYKLRPVAAEIYGTKESPQTHYYAVAVVKKGSNFQLDQLQGRKSCHTGLGRSAGWIIPMGILRPYLSWTESLEPLQGAVAKFFSASCVPCIDRQAYPNLCQLCKGEGENQCACSSREPYFGYSGAFKCLQDGAGDVAFVKETTVFENLPEKADRDQYELLCLNNSRAPVDAFKECHLAQVPSHAVVARSVDGKEDLIWKLLSKAQEKFGKNKSRSFQLFGSPPGQRDLLFKDSALGFLRIPSKVDSALYLGSRYLTTLKNLRETAEEVKARYTRVVWCAVGPEEQKKCQQWSQQSGQNVTCATASTTDDCIVLVLKGEADALNLDGGYIYTAGKCGLVPVLAENRKSSKHSSLDCVLRPTEGYLAVAVVKKANEGLTWNSLKDKKSCHTAVDRTAGWNIPMGLIVNQTGSCAFDEFFSQSCAPGADPKSRLCALCAGDDQGLDKCVPNSKEKYYGYTGAFRCLAEDVGDVAFVKNDTVWENTNGESTADWAKNLNREDFRLLCLDGTRKPVTEAQSCHLAVAPNHAVVSRSDRAAHVKQVLLHQQALFGKNGKNCPDKFCLFKSETKNLLFNDNTECLAKLGGRPTYEEYLGTEYVTAIANLKKCSTSPLLEACAFLTR | virtually no precursor was removed | only a trace of the precursor was removed | at least three years | 76% | 5.7 | – | –
A. awamori recombinant lactoferrin: Aspergillus awamori recombinant human lactoferrin provided by Agennix Corporation (protein, UniProt P02788 20-710, looked up, expressed in Aspergillus awamori) Lactotransferrin: GRRRSVQWCAVSQPEATKCFQWQRNMRKVRGPPVSCIKRDSPIQCIQAIAENRADAVTLDGGFIYEAGLAPYKLRPVAAEVYGTERQPRTHYYAVAVVKKGGSFQLNELQGLKSCHTGLRRTAGWNVPIGTLRPFLNWTGPPEPIEAAVARFFSASCVPGADKGQFPNLCRLCAGTGENKCAFSSQEPYFSYSGAFKCLRDGAGDVAFIRESTVFEDLSDEAERDEYELLCPDNTRKPVDKFKDCHLARVPSHAVVARSVNGKEDAIWNLLRQAQEKFGKDKSPKFQLFGSPSGQKDLLFKDSAIGFSRVPPRIDSGLYLGSGYFTAIQNLRKSEEEVAARRARVVWCAVGEQELRKCNQWSGLSEGSVTCSSASTTEDCIALVLKGEADAMSLDGGYVYTAGKCGLVPVLAENYKSQQSSDPDPNCVDRPVEGYLAVAVVRRSDTSLTWNSVKGKKSCHTAVDRTAGWNIPMGLLFNQTGSCKFDEYFSQSCAPGSDPRSNLCALCIGDEQGENKCVPNSNERYYGYTGAFRCLAENAGDVAFVKDVTVLQNTDGNNNEAWAKDLKLADFALLCLDGKRKPVTEARSCHLAMAPNHAVVSRMDKVERLKQVLLHQQAKFGRNGSDCPDKFCLFQSETKNLLFNDNTECLARLHGKTTYEKYLGPQYVAGITNLKKCSTSPLLEACEFLRK | – | – | – | – | – | partial proteolysis of Hap | generated two products
